# Assay results published in paper PMC12277278 (Frontiers in Immunology, 2025).
# B1: F945 IgG (recombinant human monoclonal antibody, IgG1/kappa) (antibody, V domains shown)
# VH: QVQLVESGGGVVQPGRSLRLSCAASGFSFNTYAFHWVRQGPGKGLEWVAGISFDGSKRYYADSVKGRFTVSRDNSKNTLYLQMNGLIPEDTAVYYCARDRRIVVVSAPGYWGQGTLVTVSS
# VL: DIQMTQSPSSLSASVGDRVTITCQASHDISNYLNWYQQKPGKAPKLLIFDASYLETGVPSRFSGSGSGTDFTFTINSLQSEDIATYYCQQYDTLLSFGGGTRVEIK
# Biological target: T1, recombinant DbpA from B. burgdorferi strain 297 (DbpA297) (Borrelia burgdorferi strain 297, UniProt O50917)
# T1 construct: also called recombinant DbpA297
# Assay: multiplex microsphere immunoassay (MIA, Luminex); recombinant antigens coupled to MagPlex-C microspheres; diluted MAb incubated 1 h at RT; PE-labelled secondary antibody; MFI read on a FlexMap 3D
# Conditions: both partners purified
# T1 sequence (O50917 30-168): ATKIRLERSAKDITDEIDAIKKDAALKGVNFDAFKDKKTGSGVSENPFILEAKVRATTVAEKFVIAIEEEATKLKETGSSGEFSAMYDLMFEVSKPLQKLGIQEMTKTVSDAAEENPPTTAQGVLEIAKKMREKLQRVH
binder,measurement,value
B1,binding result,no binding
